Consider one molecule from patent US20220154138A1, “METHOD OF PRODUCING PLACENTA-LIKE ORGANOID, PLACENTA-LIKE ORGANOID, AND PRODUCTION OR TEST KIT” (FUJIFILM Corporation, priority 2020, published 2022).

The assay deals with iPS cells. Briefly: Two-dimensional adhesion culture with BMP4, hCG quantified by i-STAT cartridge Total β-hCG. Format: cell-based, human. The procedure: In the i-STAT cartridge Total β-hCG, about 17 μL of the culture supernatant was sampled, injected into the reagent cartridge, and inserted into the single-purpose analyzer.
Two-dimensional adhesion culture was carried out by the following method. Laminin (iMatrix-511: Nippi. Inc.) was diluted with Dulbecco's phosphate buffered saline (DPBS), 1 mL thereof per well was dispensed into a 6-well plate (Falcon TC: #353046), and the plate was allowed to stand in a 37° C. incubator for 1 hour to be coated with laminin. 2 mL of an iPS cell medium (StemFit (registered trade name) AK02N: Ajinomoto Co., Inc.) was dispensed into the laminin-coated plate in a state where a BMP4 solution was not added, iPS cells (4×10^4 cells/well) were seeded therein, the culture was continued while appropriately changing the medium, and from the 4th day of culture, 2 mL of an iPS cell culture medium (StemFit (registered trade name) AK02N: Ajinomoto Co., Inc.) to which 2 μL of a solution containing 50 μg/mL BMP4 (R&D Systems Inc.) solution had been added so that the BMP4 concentration was to be 50 ng/mL was used at the time of the medium exchange.
On the other hand, three-dimensional suspension culture was started at the same time using the same iPS cells used in the two-dimensional culture adhesion culture. 30 mL of an iPS cell medium (StemFit (registered trade name) AK02N: Ajinomoto Co., Inc.) was dispensed into a 30 mL volume spinner flask (ABLE Corporation), and then iPS cells (1.3×10^6 cells/mL) were seeded. In the same manner as in the two-dimensional adhesion culture, BMP4 was not added at the start of culture, but a medium to which a solution containing 50 μg/mL BMP4 (R&D Systems Inc.) was added at the same proportion as that used in the two-dimensional adhesion culture was used after the 4th day of culture. After the start of culture, the addition of BMP4 to the medium was continued until the 14th day of culture while the medium was exchanged every 3 to 4 days, and thereafter, a medium to which BMP4 had not been added was used. In three-dimensional suspension culture, stirring culture was continued in a spinner flask throughout the culture period. While continuing the two-dimensional adhesion culture and the three-dimensional suspension culture, the culture supernatant was appropriately sampled after the 7th day of culture, and the amount of hCG produced was quantified using the i-STAT cartridge Total β-hCG. Since there are differences in the number of cells that can be seeded at the start of culture and the adding amount of medium between the two-dimensional culture and the three-dimensional culture, there are differences in the hCG concentration and the total hCG production in the culture supernatant, and thus it is not possible to simply compare them. For this reason, the hCG quantification value on the 7th day of culture after the start of differentiation induction into the placenta was set to 100, and the ratio of the hCG quantification value on the subsequent culture measurement day to the hCG quantification value on the 7th day of culture was calculated. That is, in a case where the hCG quantification value on the 7th day is set to 100 in each of the two-dimensional and three-dimensional culture forms, the subsequent changes after the 7th day in the hCG production amount are shown in FIG. 2. It was confirmed that in the two-dimensional culture, the decrease in hCG production amount is particularly remarkable after the 15th day of culture, whereas in the three-dimensional culture, the hCG continues to be produced after the 15th day, and even on the 25th day of culture, 10 times or more of the hCG production is maintained as compared with the 7th day of culture.

B1: BMP4: bone morphogenetic protein BMP4 (R&D Systems Inc.), added to iPS cell medium at 50 ng/mL to induce differentiation (protein, UniProt P12644 293-408, looked up)
Bone morphogenetic protein 4: SPKHHSQRARKKNKNCRRHSLYVDFSDVGWNDWIVAPPGYQAFYCHGDCPFPLADHLNSTNHAIVQTLVNSVNSSIPKACCVPTELSAISMLYLDEYDKVVLKNYQEMVVEGCGCR
B1 returned a hCG production (BMP4 50 ng/mL from day 4, day 7) of 6.6 IU; a hCG production (day 11) of 8.0 IU; a hCG production (day 15) of 5.0 IU; a hCG production (day 18) of 4.1 IU; a hCG production (day 22) of 1.4 IU; a hCG production (day 25) of 1.6 IU. Where the note is “day 7”, the “hCG* production (hCG production on each of culture days/hCG production amount on 7th day) × 100” value was 100 AU. Moreover, the “hCG* production (relative to 7th day × 100)” value (day 11) is recorded as 120 AU; the “hCG* production (relative to 7th day × 100)” value (day 15) came out at 75 AU; the “hCG* production (relative to 7th day × 100)” value (day 18) was 62 AU; the “hCG* production (relative to 7th day × 100)” value (day 22) is listed as 20 AU; the “hCG* production (relative to 7th day × 100)” value (day 25) is 25 AU.
